Data on 7 molecules can be found in PMC9929924, “Phosphorylation of the receptor protein Pex5p modulates import of proteins into peroxisomes” (Biological Chemistry, 2022).

The subject of one assay is Pex5p^2D cells. Put plainly: Fluorescence microscopy, peroxisomal import of GFP-tagged proteins in Pex5p^2D-expressing cells. In kind it is cell-based, S. cerevisiae. On the set-up: key to import phenotype category: showed a reduced peroxisomal import and constitute category 1; category 2 characterized by no peroxisomal import; without a noticeable effect on import in Pex5p^2D cells (category 3). Conditions: GFP-tagged protein, Pex3p-mCherry marker, SD medium, 2% glucose; for import phenotype category: Pex5p^2D-expressing cells, assessed manually. The text has this: Query strains were constructed on the basis of an automated mating compatible strain. The query strains contained a peroxisomal marker (Pex3p-mCherry::HIS), a deletion of PEX5 (pex5Δ::NAT) and a plasmid expressing WT or mutant PEX5 (PEX5^WT, PEX5^2D or PEX5^2A). Using an automated mating method ([Cohen and Schuldiner 2011]; [Tong and Boone 2006]), the query strains were crossed with a NOP1pr-N′-GFP-peroxi library ([Dahan et al. 2017]). The NOP1pr-N′-GFP-peroxisomal library is a collection of ∼90 strains containing all the known peroxisomal proteins together with potential peroxisomal proteins and controls, genomically tagged with GFP at their N-terminus and expressed under the generic constitutive SpNOP1 promoter. To perform the manipulations in high-density format we used a RoToR bench top colony arrayer (Singer Instruments). In short: mating was performed on rich medium plates, and selection for diploid cells was performed on SD(MSG)-HIS-URA plates containing Geneticin (200 μg ml^−1) and Nourseothricin (200 μg ml^−1). Sporulation was induced by transferring cells to nitrogen starvation media plates for 7 days. Haploid cells containing the desired mutations were selected by transferring cells to SD-URA-HIS-LYS-ARG-LEU plates containing Geneticin and Nourseothricin (same concentrations as above), alongside the toxic amino acid derivatives Canavanine and Thialysine (Sigma-Aldrich) to select against remaining diploids and select for spores with an α mating type. A similar method was used to generate control, pex5Δ, and pex8Δ strains expressing GFP-Mdh3p (Supplementary Figure 4D), in which the query strain contained a peroxisomal marker (Pex3p-mCherry::NAT) and URA3::GFP-Mdh3p. This query strain was crossed with three strains from the mini peroxisomal deletion library ([Gabay-Maskit et al. 2020]): a control (no deletion), pex5Δ, and pex8Δ strain, all of which contain KAN (Geneticin) resistance.
The yeast collections were visualized using an automated microscopy setup as described previously ([Breker et al. 2013]). In short: cells were transferred from agar plates into 384-well polystyrene plates (Greiner) for growth in liquid media using the RoToR arrayer robot. Liquid cultures were grown in a LiCONiC incubator, overnight at 30 °C in SD-URA-HIS medium. A JANUS liquid handler (PerkinElmer) connected to the incubator was used to dilute the strains to an OD600 of ∼0.2 into plates containing SD medium (6.7 g l^−1 yeast nitrogen base and 2% glucose) supplemented with complete amino acids. Plates were incubated at 30 °C for 4 h. The cultures in the plates were then transferred by the liquid handler into glass-bottom 384-well microscope plates (Matrical Bioscience) coated with Concanavalin A (Sigma-Aldrich). After 20 min, cells were washed three times with SD-Riboflavin complete medium to remove non-adherent cells and to obtain a cell monolayer. The plates were then transferred to the ScanR automated inverted fluorescent microscope system (Olympus) using a robotic swap arm (Hamilton). Images of cells in the 384-well plates were recorded in the same liquid as the washing step at 24 °C using a 60× air lens (NA 0.9) and with an ORCA-ER charge-coupled device camera (Hamamatsu). Images were acquired in two channels: GFP (excitation filter 490/20 nm, emission filter 535/50 nm) and mCherry (excitation filter 572/35 nm, emission filter 632/60 nm). All images were taken at a single focal plane. The same protocol was used to visualize fluorescence signals in GFP-Mdh3p-expressing control, pex5Δ, and pex8Δ strains (Supplementary Figure 4D).

Assay [1] deals with GFP-SKL import in pex5Δ yeast cells. Put plainly: Fluorescence microscopy, import of GFP-SKL in cells expressing Pex5p variants. It is filed as cell-based, S. cerevisiae. Conditions: pex5Δ cells expressing plasmid-encoded Pex5p variant and GFP-SKL; grown in oleate. The protocol: Cells expressing distinct Pex5p variants (wildtype, Pex5p^2A or Pex5p^2D) and GFP-SKL were grown overnight in 50 ml YNO medium supplemented with 0.1% (w/v) glucose to an OD600 of 1–1.5. Aliquots of 5.4 ml were taken and formaldehyde was added to a final concentration of 3.7% (v/v). Samples were incubated for 10 min at RT with slight agitation. Cells were collected by centrifugation (5 min at 2000 g), resuspended in 1 ml of 0.1 M potassium phosphate buffer (pH 6.8) containing 3.7% (v/v) formaldehyde and incubated for 1 h at RT with slight agitation. Following centrifugation (30 s at 16,000 g), cells were resuspended in 1 ml of 0.1 M potassium phosphate buffer (pH 6.8) containing 10 mM ethanolamine and incubated for further 10 min at RT. Subsequently, cells were washed twice with phosphate-buffered saline (PBS) and resuspended in 10–20 µl of PBS containing 0.1% (v/v) Triton X-100. Fixed cells were analyzed within 48 h after preparation.
Fluorescence microscopy was performed using a Zeiss Axio Observer.Z1 microscope equipped with an alpha Plan-Aprochromat 100× objective and an AxioCam MR R3. GFP signal was visualized with a 38 HE filterset from Zeiss. Images were processed using Adobe Photoshop CS5 (version 12.0.4 ×64; Adobe Systems Incorporated). To document the structural integrity of cells, bright field images were acquired, adjusted in a way that only the cell boundaries were visible and subsequently added into the blue channel in Photoshop as reported before ([Motley and Hettema 2007]).

As for “Pex8p: essential component of the import machinery for peroxisomal matrix proteins”, the import phenotype category entry with Pex5p^2D cells is “category 1”.

B1: Mls1p (protein, UniProt P30952 1-554, looked up)
Malate synthase 1: MVKVSLDNVKLLVDVDKEPFFKPSSTTVGDILTKDALEFIVLLHRTFNNKRKQLLENRQVVQKKLDSGSYHLDFLPETANIRNDPTWQGPILAPGLINRSTEITGPPLRNMLINALNAPVNTYMTDFEDSASPTWNNMVYGQVNLYDAIRNQIDFDTPRKSYKLNGNVANLPTIIVRPRGWHMVEKHLYVDDEPISASIFDFGLYFYHNAKELIKLGKGPYFYLPKMEHHLEAKLWNDVFCVAQDYIGIPRGTIRATVLIETLPAAFQMEEIIYQLRQHSSGLNCGRWDYIFSTIKRLRNDPNHILPNRNQVTMTSPFMDAYVKRLINTCHRRGVHAMGGMAAQIPIKDDPAANEKAMTKVRNDKIRELTNGHDGSWVAHPALAPICNEVFINMGTPNQIYFIPENVVTAANLLETKIPNGEITTEGIVQNLDIGLQYMEAWLRGSGCVPINNLMEDAATAEVSRCQLYQWVKHGVTLKDTGEKVTPELTEKILKEQVERLSKASPLGDKNKFALAAKYFLPEIRGEKFSEFLTTLLYDEIVSTKATPTDLSKL
As for B1, in the assay with Pex5p^2D cells, the import phenotype category entry is given as “category 2”.

B2: Str3p: peroxisomal cystathionine beta-lyase (protein, UniProt P53101 1-465, looked up)
Cystathionine beta-lyase: MPIKRLDTVVVNTGSQNDQHSASVPPVYLSTTFKVDLNNEDAQNYDYSRSGNPTRSVLQHQIGKLYRVPQENVLAVSSGMTALDVILRGLVLLNGTDNHTPTIIAGDDLYGGTQRLLNFFKQQSHAVSVHVDTSDFEKFKTVFQSLDKVDCVLLESPTNPLCKVVDIPRILRFVKCISPDTTVVVDNTMMSGLNCNPLQLNPGCDVVYESATKYLNGHHDLMGGVIISKTPEIASKLYFVINSTGAGLSPMDSWLLVRGLKTLGVRLYQQQRNAMILAHWLENSCGFKPTRTNKATKTRFVGLRSNPDFKLHKSFNNGPGAVLSFETGSFEHSKRLVSSKKLSIWAVTVSFGCVNSLLSMPCKMSHASIDPELRKERDFPEDLVRLCCGIENIVDLKKDLLAAMVDADIIEVRENGKYLFNKLNKNLAVNTTIDDLHKPLSIYEEFYNQDLIRKDSELNIKSSKL
For B2, the import phenotype category entry in the assay with Pex5p^2D cells is recorded as “category 3”.

B3: Pex5p^S507D (protein, UniProt P35056 1-612, looked up, variant S507D)
Peroxisomal targeting signal …: MDVGSCSVGNNPLAQLHKHTQQNKSLQFNQKNNGRLNESPLQGTNKPGISEAFISNVNAISQENMANMQRFINGEPLIDDKRRMEIGPSSGRLPPFSNVHSLQTSANPTQIKGVNDISHWSQEFQGSNSIQNRNADTGNSEKAWQRGSTTASSRFQYPNTMMNNYAYASMNSLSGSRLQSPAFMNQQQSGRSKEGVNEQEQQPWTDQFEKLEKEVSENLDINDEIEKEENVSEVEQNKPETVEKEEGVYGDQYQSDFQEVWDSIHKDAEEVLPSELVNDDLNLGEDYLKYLGGRVNGNIEYAFQSNNEYFNNPNAYKIGCLLMENGAKLSEAALAFEAAVKEKPDHVDAWLRLGLVQTQNEKELNGISALEECLKLDPKNLEAMKTLAISYINEGYDMSAFTMLDKWAETKYPEIWSRIKQQDDKFQKEKGFTHIDMNAHITKQFLQLANNLSTIDPEIQLCLGLLFYTKDDFDKTIDCFESALRVNPNDELMWNRLGASLANSNRDEEAIQAYHRALQLKPSFVRARYNLAVSSMNIGCFKEAAGYLLSVLSMHEVNTNNKKGDVGSLLNTYNDTVIETLKRVFIAMNRDDLLQEVKPGMDLKRFKGEFSF
Regarding B3, the “subcellular distribution of GFP-SKL” value in assay [1] was “wildtype-like distribution of GFP-SKL”.

B4: Pex5p^S523D (protein, UniProt P35056 1-612, looked up, variant S523D)
Peroxisomal targeting signal …: MDVGSCSVGNNPLAQLHKHTQQNKSLQFNQKNNGRLNESPLQGTNKPGISEAFISNVNAISQENMANMQRFINGEPLIDDKRRMEIGPSSGRLPPFSNVHSLQTSANPTQIKGVNDISHWSQEFQGSNSIQNRNADTGNSEKAWQRGSTTASSRFQYPNTMMNNYAYASMNSLSGSRLQSPAFMNQQQSGRSKEGVNEQEQQPWTDQFEKLEKEVSENLDINDEIEKEENVSEVEQNKPETVEKEEGVYGDQYQSDFQEVWDSIHKDAEEVLPSELVNDDLNLGEDYLKYLGGRVNGNIEYAFQSNNEYFNNPNAYKIGCLLMENGAKLSEAALAFEAAVKEKPDHVDAWLRLGLVQTQNEKELNGISALEECLKLDPKNLEAMKTLAISYINEGYDMSAFTMLDKWAETKYPEIWSRIKQQDDKFQKEKGFTHIDMNAHITKQFLQLANNLSTIDPEIQLCLGLLFYTKDDFDKTIDCFESALRVNPNDELMWNRLGASLANSNRSEEAIQAYHRALQLKPDFVRARYNLAVSSMNIGCFKEAAGYLLSVLSMHEVNTNNKKGDVGSLLNTYNDTVIETLKRVFIAMNRDDLLQEVKPGMDLKRFKGEFSF
Regarding B4, the “subcellular distribution of GFP-SKL” value in assay [1] is “wildtype-like distribution of GFP-SKL”.

B5: Idp3p (protein, UniProt P53982 1-420, looked up)
Isocitrate dehydrogenase …: MSKIKVVHPIVEMDGDEQTRVIWKLIKEKLILPYLDVDLKYYDLSIQERDRTNDQVTKDSSYATLKYGVAVKCATITPDEARMKEFNLKEMWKSPNGTIRNILGGTVFREPIIIPKIPRLVPHWEKPIIIGRHAFGDQYRATDIKIKKAGKLRLQFSSDDGKENIDLKVYEFPKSGGIAMAMFNTNDSIKGFAKASFELALKRKLPLFFTTKNTILKNYDNQFKQIFDNLFDKEYKEKFQALKITYEHRLIDDMVAQMLKSKGGFIIAMKNYDGDVQSDIVAQGFGSLGLMTSILITPDGKTFESEAAHGTVTRHFRKHQRGEETSTNSIASIFAWTRAIIQRGKLDNTDDVIKFGNLLEKATLDTVQVGGKMTKDLALMLGKTNRSSYVTTEEFIDEVAKRLQNMMLSSNEDKKGMCKL
With B5, the import phenotype category entry in the assay with Pex5p^2D cells is listed as “category 2”.

B6: Pnc1p: nicotinamidase, imported by piggy-backing on Gpd1p (protein, UniProt P53184 1-216, looked up)
Nicotinamidase: MKTLIVVDMQNDFISPLGSLTVPKGEELINPISDLMQDADRDWHRIVVTRDWHPSRHISFAKNHKDKEPYSTYTYHSPRPGDDSTQEGILWPVHCVKNTWGSQLVDQIMDQVVTKHIKIVDKGFLTDREYYSAFHDIWNFHKTDMNKYLEKHHTDEVYIVGVALEYCVKATAISAAELGYKTTVLLDYTRPISDDPEVINKVKEELKAHNINVVDK
As to B6, in the assay on Pex5p^2D cells (Pex5p^2D cells), the “subcellular distribution / peroxisomal import” value was “no differences in localization”.
